Source: PMC11489326, “Characterization of lignin-degrading enzyme PmdC, which catalyzes a key step in the synthesis of polymer precursor 2-pyrone-4,6-dicarboxylic acid” (The Journal of Biological Chemistry, 2024)

Substrate: O=C(O)c1ccc(O)c(O)c1
Experiment: purified protein
Type: biochemical, Comamonas testosteroni
Conditions: pH 7.5, room temperature, anaerobically purified enzyme, dithionite-treated, O2 co-substrate

B1: PmdAB (protocatechuate 4,5-dioxygenase) (Comamonas testosteroni) (protein)
chain 1: MARITASVFTSHVPAIGAAMDMGKTQEAYWAPLFKGYDFSRQWMKDNKPDVIFLVYNDHATAFSLDCIPTFAIGTAAEFQPADEGWGPRPVPKVVGHPDLASHIAQSVIQQDFDLTIVNKMDVDHGLTVPLSLMCGEQDPKTGSWPCPVIPFAVNVVQYPVPTGQRCFNLGRAIRKAVESYDQDINVHIWGTGGMSHQLQGARAGLINKEWDNQFLDLLVENPHGLAQMPHIDYVREAGSEGIELVMWLIARGAMSDVDGPAPLPKVAHRFYHVPASNTAVGHLILENQ
chain 2: MALEKPYLDVPGTIIFDAEQSRKGYWLNQFCMSLMKAENRERFRADERAYLDEWAMTEEQKQAVLARDLNWCMRTGGNIYFLAKIGATDGKSFQQMAGSMTGMTEEEYRAMMMGGGRSAEGNRYVGEDGDAQAHHQPQGSAGNQNKEGN
notes: full-length, codon-optimized, N-terminal His6-PmdA co-expressed with PmdB in E. coli BL21(DE3); purified anaerobically; alpha2beta2 heterotetramer, nonheme Fe(II)
  Km: 33.00 ± 12.0 µM
  kcat: 107 ± 7.5 s⁻¹
  kcat/Km: 3.3e+06 M⁻¹ s⁻¹
